Results on one substance are retold here after patent US20230181770A1, “COMPOSITIONS AND METHODS OF TARGETING AND IMAGING AGED MICROGLIA WITH Aß PEPTIDE AMINO ACID RESIDUES FOR V-DOMAIN BINDING OF RAGE” (Neurosn, Inc., priority 2018, published 2023).

In the test the target is T1, RAGE receptors (Mus musculus, UniProt Q62151).
T1 construct: from tissue; host or cells: mouse brain (APPSWE Model 2789 and C57BL/6 mice), after tail vein injection
The test can be described thus: Brain autoradiography (AR) binding localization after tail vein injection in AD and normal mice. It counts as in vivo. The note with it: 50 μCi per tail vein at day 0, sacrificed day 3. An excerpt: Four APPSWE Model 2789 mice (AD) and 4 C57BL/6 mice (normal) receive an injection of 50 μCi of Sn-IBD-Aβ(16-23) per tail vein at day 0.
Additionally, four APPSWE Model 2789 mice (AD) and 4 C57BL/6 mice (normal) receive an injection of 50 μCi of Sn-IBD-K-Aβ(23-17) per tail vein at day 0.
All the animals are sacrificed on day 3 post Sn-Aβ-AA injection and brains preserved and autoradiography (AR) binding localization in AD-specific areas mapped.
Findings—Histopathological comparison and autoradiography dosimetry are measured in each mouse brain in comparative anatomic regions.

T1 sequence (Q62151 23-402): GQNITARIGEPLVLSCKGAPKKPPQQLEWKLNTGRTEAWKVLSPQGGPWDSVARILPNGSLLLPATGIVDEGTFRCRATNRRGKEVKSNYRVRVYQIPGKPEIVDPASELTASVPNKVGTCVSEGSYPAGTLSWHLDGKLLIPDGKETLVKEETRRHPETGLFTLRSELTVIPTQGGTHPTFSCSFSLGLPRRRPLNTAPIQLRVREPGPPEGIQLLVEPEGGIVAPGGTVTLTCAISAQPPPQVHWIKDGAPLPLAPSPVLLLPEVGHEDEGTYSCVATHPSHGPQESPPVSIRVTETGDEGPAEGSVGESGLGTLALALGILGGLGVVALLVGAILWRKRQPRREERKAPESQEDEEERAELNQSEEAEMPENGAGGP

For the substance “Sn-IBD-Aβ(16-23) (KLVFFAED; Amyloid-beta protein 42 Sn-IBD conjugate; UniProt P05067 687-694, looked up, fragment)”, the “AR distribution of RAGE binding in brain” value (RAGE expressing APPSWE Model 2789 mice (AD)) was “increase in RAGE binding”. Further, the “AR distribution of RAGE binding in cortical and hippocampal areas” value (normal C57BL/6 mice) is recorded as “minimal”.
